The NTF2 design screens of Basanta et al. (2020)

Experiment: protease stability score; higher = more stable; yeast display proteolysis, trypsin and chymotrypsin;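 also: log10 excess protease needed over predicted unfolded state with 0 meaning unfolded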

In the case of “DHERILQELLDRAVKMLNTGNEEHARKLAPPHARMVVGDKTIHGMENIAHEWQKVQDRVDHVEARVHSMSVDGDKFVVIVEVTLDINGRKQTQVVTFIAVKNNGQVYVKQINIS”, the protease stability score is reported as -0.162.
In the case of “DEELKERYERQEKAFENGDPDQAEDMMDPNVHVDVGNKELHGREEIVRDLHNVLQNWRFDRKVDSVNNRGDKLEVDAKQTLNVNGKPFHWHFTIVARAHNGKLKSQTVEMDPDTNRKIQS”, the protease stability score is reported as -0.057.
For “DEDHDVRVAENLLEAIRTGNEDEVTRLADENAELEIGDHRYHGREQVSSAAKRINDRADDISINEVHYTGDKLSVQMQMNVNGKNIVVDVVVVAHNGRVKTVRFQYTSEEDFKKFES”, the protease stability score was 0.538.
With “DEENAHEAVRIWETGDPQENADLVDPNVHARYGDKKIRGREDMEEFWRRMHHQIDHKDVRDIQVSGNHIEIDMEINVDGVRARYVARYHMDNGKIKSANAEFRDPDEKQDIRRALD” the protease stability score was 0.275.
Work on “DEEKDQKLATDLSDVIKTGDKEKMVKMADPNARIIVGDRVYHGREVILRWVRTLRERVDRIQIDSYDARDGKVRIIFQVRFDGRTTKIDLVVQYDNGHAKKIEVREK” yielded a protease stability score of 0.075.
For “DEEADKRITEQLKQEQEGDKDKVKEQIDPNARIKVGDKTIHGMDEYVRMVHRTRREQRRRIRVVSVEVRGNTAKVDADRHIDVNGRPVRYRIEFHVEFHNGKVTDIHVHTDQEQKKKQHG”, the protease stability score was 0.655.
Sequence “DDELHKLAEEFVTALQKGDPDRANSLFDPNAKFVVGDEVLHGREDFEKWLDELKHQMRIQFESVKIDKRPGRIIIDNVFRVHVNGKPDQIRIEIDIQVHNGKIKEVIYRMDPDKFREVMS” has a protease stability score of 1.3.
Sequence “DEKTAASQFFRDLRHALRQGDETRIMELADENVEFQIGDKRWHGRESAMELARHVHNRADTVELRIEDLKIDNGQMNADVLITFNHNGRNETQRVNVRARIHNGHVVLVEVHQK” has a protease stability score of 1.62.
“DETDTAKDFAEELRTIFESNDFKRYQQLFDPNAKIHVGEKRLHGDRRVNNLIKEIFDRADHLHFDLREFEVKGEKVRIRYVEKQKINGKDETRDVVMVAVKQGDKMYITEVRHQ” gave a protease stability score of 1.13.
Sequence “DRQNKAQDLAEELRRAFHTNNEDQFKKLADKNARATVGEHTFHGSDEIRKVLKELVDNVDHLRVDIHSVSVHNGQINIDMKLILDHNGRKETQEVHIRAQDHNGQNKVRNITFG” has a protease stability score of -0.154.
Sequence “DEELAHKIAKLMETNNFQDMAKQADENATAVVGDFKVRGRSQLETLMQRFLDQIDHFEVKSWHIDNGNVHVNFVASVNGRTIEAQVIIHVSNGRIKSIELRVRNQDVQKHLRNMLS” has a protease stability score of 1.05.
“DEKQLHRVRHFLEVVRQGDEDNLREMADPNVRMVVGDKQFHGREEAVKFLVHKAKELRIDVKFKTINVRGDKVKAVAEMTENQNGKPHHAKLTWEIQMSNGKIQQLDFKLST” showed a protease stability score of 0.275.
Work on “DEEQVKKVLETLVKALQKGNIEEILKMLKEDVEFVLIDEKYQGREDAKKIVKQLVDQGMEVHFDRHEVTGNQAHVQTRWHYGNKEAHAEVTYYVKGDTVDKVDIQWSETAKKAVKEG” yielded a protease stability score of 1.13.
In the case of “DESLEDMARQLNTALQTNNPESVKEMFDKNARLEVGDKTWKGREHIDQWANRLRDEIRYEVRRFDLRVHGDKIEVNVHEEIQINGRPKSVSYSYTMRAHNGRIKHARYQPDPDAERRKKK”, the protease stability score is reported as 0.031.
“DHEAQENAKHFIDALHTNDPRQVVEMIDPNARVNVGDKQLRGDSQVRKWWRRQNEEIRMHVKVDDIKVKGNNAVAKFKMEITHDGTPNDNHAEMTVTFHNGRATDLKVDEDK” showed a protease stability score of 0.017.
“EEDQERQAEKLIRILENGDEDKAKEQADPNARFEYGDKKYHGMSNFATEVKKLRDHARVEFDNIRVRAHGDKVRIRLDFKVNINGDPSRFNVHMFNQMHNGQFKQMYKDLDPTELEQIHK” gave a protease stability score of -0.25.
In the case of “DERNQKEVADKMYTAFRHGDPRKINKLADKDVTARYGDKVVSGRDDMVRQIDEIRKSIDHMSITSIEVHNGKADATLRFVVNGRDLQMKLVIVIHNGKVKHLSVQFRDDEQKKVLER”, the protease stability score is reported as -0.174.
For “DEKDKDVADELRKAYHTGDHNRLREMVDKDVKFQVGDQDYHGRETFMKLNHTERNEIRIEIQSIRVHVHNGRVTVKQVVVREHNGRPTRMQQVLTIDAHNGKIKKMFIKDDQ”, the protease stability score was 0.069.
In the case of “DQEDKDSLEQILHTGDWVDAAKSADPNAQAEVGDKTWTGREQVEKVMKRLRDDIDHQEVKSVEIDGDKMHVDLTAHINGERMRITIEVKYSNGHLVKVVVKATDKEVEKHLKKLLD”, the protease stability score is reported as 1.54.
“DEHTSAHNFIEHEWKVFSTNDKKSMKELIDKNVKIDVGDKQVNGREEAARQEVETAKRVDHVDVKLQHLSVHNGRIKAQFRRVLRVDGQDNDEVLRFVIQLNNGNAQAKDKHET” gave a protease stability score of 0.115.
Sequence “DESEEKELEDILRRNDWERMSELAPPDVHATVGDTRLHGMEQVLSLFQTLNKRADQIHVKTLSVHNGQLHAVIVMQFNGRRVELHFDFEVKNGEFTSARVQARTEEEEKVMKEVLR” has a protease stability score of 1.05.
In the case of “DEEEHFRKWVHEFIKILETGDPDQAKKMMDPNVRETVGDKSLHGHDQMVREIEKRRESIDHVNFDIKDYRIQGNHFVLDLKVNEVHNGKEITRRLEVDASTQGDKLYVNEIRLS”, the protease stability score is reported as -0.146.
“DREVIKLAKRMITALQKGDHQKFVNLLDPNVRIDVGDKEVHGQEEAQERLREETRQIRVDNHVKTIDDNNGRANFKMSVNAQVNGKPVHYEVNAVVHAHNGKARRLHIKVPEEDKRHLDR” gave a protease stability score of 0.034.
“DESDVERLTEIMEQNDFDQWVDQADKDAELVVGDKTLKGRETIQRWLKILSERVDHVSIKHIRNNGEEVDVKMTMIINGHRFEFVVNLTVHNGKITRFNFNFRDPDQLRRLHDQMS” showed a protease stability score of 1.25.
For “DEEVLQEYREAFEEGDEERIQNLADENVKVTYGDKDYHGRHDMRKFMKWLKRAADRIEIKRYTQTGDKLRIVVVMHVNGQTIKFSVVVRVHNGNVKSVRMDATSEEDRKHFERVVD”, the protease stability score was 0.755.
